# From publication PMC6684243
# Molecular target: N-terminal domain of the HIV-1 capsid protein (HIV-1) (UniProt P12493)
# Assay: ITC
substance,measurement,value
calcium-saturated human calmodulin ((Ca^2+)4-CaM) (from UniProt P0DP23 1-149) (natural protein),Kd,3.73 µM
same,stoichiometry N,1
